Experimental findings from patent US20220002426A1 (BIOINVENT INTERNATIONAL, published 2022) are described below.

As usually defined, the EC50 is the concentration at which the effect is half-maximal.

Assay [1] deals with T1, recombinant human TNFR2-Fc protein (Sino Biological) (human, UniProt P20333 23-257, limits assumed).
T1 construct: bought; also called human TNFR2 protein; not shown: Fc part of the bought fusion protein; not described
T1 sequence (looked up): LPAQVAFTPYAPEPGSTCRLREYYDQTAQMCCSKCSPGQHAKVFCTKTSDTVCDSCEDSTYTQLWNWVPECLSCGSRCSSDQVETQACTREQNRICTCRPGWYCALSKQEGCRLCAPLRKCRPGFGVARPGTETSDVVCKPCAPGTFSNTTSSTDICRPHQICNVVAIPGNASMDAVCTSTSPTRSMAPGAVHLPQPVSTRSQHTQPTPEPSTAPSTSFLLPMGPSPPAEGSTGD
The assay can be described thus: ELISA, coated TNFR2-Fc. How it is done:
96-well plates (Lumitrac 600 LIA plate, Greiner) were coated overnight at 4° C. with recombinant human or mouse TNFR2-Fc protein (Sino Biological) at 1 pmol/well. After washing, titrated doses of anti-TNFR2 mAbs from 20 μg/ml to 0.1 ng/ml (133 nM to 1 pM) were allowed to bind for 1 hour. Plates were then washed again, and bound antibodies were detected with an anti-human-F(ab)-HRP secondary antibody (Jackson ImmunoResearch) diluted in 50 ng/ml. Super Signal ELISA Pico (Thermo Scientific) was used as substrate and the plates were analyzed using Tecan Ultra Microplate reader.
(An ELISA detects its analyte on a solid surface through an enzyme-linked reagent.)

Assay [2] addresses T2, wild type, full length human TNFR2 (on cells) (human, UniProt P20333 23-461).
T2 construct: whole, on cells; also called hTNFR2; TNFRII
T2 sequence (looked up): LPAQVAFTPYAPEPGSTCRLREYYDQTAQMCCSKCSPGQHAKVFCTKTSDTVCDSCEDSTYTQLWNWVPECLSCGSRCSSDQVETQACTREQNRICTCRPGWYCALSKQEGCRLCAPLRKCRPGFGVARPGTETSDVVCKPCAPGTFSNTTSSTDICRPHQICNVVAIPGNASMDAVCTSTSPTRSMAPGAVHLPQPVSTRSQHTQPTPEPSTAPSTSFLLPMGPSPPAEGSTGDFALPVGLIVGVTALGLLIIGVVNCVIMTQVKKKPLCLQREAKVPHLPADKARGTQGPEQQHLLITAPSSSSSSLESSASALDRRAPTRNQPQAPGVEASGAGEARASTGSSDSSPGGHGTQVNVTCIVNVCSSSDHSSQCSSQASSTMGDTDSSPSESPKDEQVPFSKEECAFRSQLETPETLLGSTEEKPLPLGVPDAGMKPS
The assay is described as follows: FACS, activated CD4+ T cells. How it is done: The ability and affinity of TNFR2 n-CoDeR® antibodies to bind TNFR2 expressed on cells were obtained using in vitro activated CD4⁺ T cells. Human CD4⁺ T cells were stimulated with 50 ng/ml rhIL-2 (R&D systems) and Dynabeads® T-Activator CD3/CD28 for T-Cell Expansion and Activation (Gibco) 2-3 days at 37 degrees. […] Cells were then incubated with an APC conjugated a-human IgG secondary ab (Jackson) followed by analysis by flow cytometry (FACSVerse, BD).
A general note: A flow cytometer gives signals particle by particle.

Assay [3] addresses T3, hTNFRII (Sinobioologicals Cat nr10414-H08H) (human, UniProt P20333 23-257).
T3 construct: bought; also called immobilized TNFR2
T3 sequence (looked up): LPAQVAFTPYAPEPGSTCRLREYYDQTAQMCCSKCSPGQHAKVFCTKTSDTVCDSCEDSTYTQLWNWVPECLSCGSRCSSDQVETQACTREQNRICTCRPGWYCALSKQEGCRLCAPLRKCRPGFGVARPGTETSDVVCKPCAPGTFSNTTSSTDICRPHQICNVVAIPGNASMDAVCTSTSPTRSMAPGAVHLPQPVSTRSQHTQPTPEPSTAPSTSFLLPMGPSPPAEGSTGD
The assay is described as follows: blocking ELISA, coated hTNFRII, competitor hTNF-α-bio 5 nM. How it is done:
96-well plates were coated with hTNFRII (Sinobioologicals Cat nr10414-H08H) or mTNFRII (Sinobioologicals Cat No. 50128 M08H) at 2.5 pmol/well in ELISA coating buffer (0.1 M sodium carbonate pH 9.5) and incubated overnight at 4° C. After washing in ELISA wash buffer (PBS with 0.05% Tween20), the plates were incubated under slow agitation for 1 h in room temperature with n-CoDeR® mAbs at 10 μg/ml (one-dose ELISA) or 33 nM and subsequent 1:2 dilutions (titration ELISA) in block buffer containing 0.45% fish gelatin. […] Thereafter, plates were washed. For the human ELISAs, Streptavidin-HRP (Jackson Cat No. 016-030-084) diluted 1:2000 in block buffer were added and again incubated for 1 h at room temperature followed by washes first in ELISA buffer and then in Tris buffer (pH 9.8). The substrate (Super Signal ELISA Pico from Thermo Scientific Cat. No. 37069) were thereafter diluted according to the manufacturers instruction, added to the wells and incubated in darkness for 10 min before reading in a Tecan Ultra. […] After washing, anti-Rabbit-HRP diluted 1:10 000 in block buffer was added and again incubated for 1 h at room temperature. Substrate adding and reading were performed as above.

B1: 001-B09 (antibody, V domains shown)
VH: EVQLLESGGGLVQPGGSLRLSCAASGFTFSRHAMNWVRQAPGKGLEWVSSISTGSSYIDYADSVKGRFTISRDNSKNTLYLQMNSLRAEDTAVYYCAREKGHYYYGMDVWGQGTLVTVSS
VL: QSVLTQPPSASGTPGQRVTISCTGSSSNIGAGYDVHWYQQLPGTAPKLLIYGNSYRPSGVPDRFSGSKSGTSASLAISGLRSEDEADYYCQSYDTSLSAYVVFGGGTKLTVLG
notes: IgG
B1: the EC50 in assay [1] is 0.18 nM; in assay [2], 29 nM.

B2: 001-D01 (antibody, V domains shown)
VH: not shown
VL: QSVLTQPPSASGTPGQRVTISCSGSSSNIGSNTVNWYQQLPGTAPKLLIYGNSNRPSGVPDRFSGSKSGTSASLAISGLRSEDEADYYCQSYDSSLSASVFGGGTKLTVLG
notes: IgG
In the case of B2, the EC50 in assay [1] came to 0.37 nM; in assay [2] it was 3.9 nM; in assay [3], 1.4 nM.

B3: 001-B05 (antibody, V domains shown)
VH: EVQLLESGGGLVQPGGSLRLSCAASGFTFSNAWMSWVRQAPGKGLEWVSSISSASGYIYYGDSVKGRFTISRDNSKNTLYLQMNNLRAEDTAVYYCARGTLYGDFDEFWGQGTLVTVSS
VL: QSVLTQPPSASGTPGQRVTISCSGSSSNIGNNAVNWYQQLPGTAPKLLIYGNTNRPSGVPDRFSGSKSGTSASLAISGLRSEDEADYYCQSYDSSLSGYVVFGGGTKLTVLG
notes: IgG
Take B3: the EC50 in assay [1] was 0.23 nM; in assay [2] it was 1.5 nM.

B4: 001-C05 (antibody, V domains shown)
VH: EVQLLESGGGLVQPGGSLRLSCAASGFTFSSNEMSWIRQAPGKGLEWVSVIYSGGSTYYADSVKGRFTISRDNSKNTLYLQMNSLRAEDTAVYYCARREGWLVPFDYWGQGTLVTVSS
VL: QSVLTQPPSASGTPGQRVTISCSGSSSNIGSNTVNWYQQLPGTAPKLLIYGNIIRPSGVPDRFSGSKSGTSASLAISGLRSEDEADYYCQSFDTTLSGSIVFGGGTKLTVLG
notes: IgG
As for B4, the EC50 in assay [1] came out at 0.38 nM; in assay [2], 12 nM.

B5: 001-C07 (antibody, V domains shown)
VH: EVQLLESGGGLVQPGGSLRLSCAASGFTFSSYEMNWVRQAPGKGLEWVSTITGGGSIYDANSVQGRFTISRDNSKNTLYLQMNSLRAEDTAVYYCARDSTYHSSGYYYDVFDIWGQGTLVTVSS
VL: not shown
notes: IgG
B5: the figures for the EC50 in assay [1], in assay [2] and in assay [3] were 0.26 nM, 36 nM and 0.8 nM, respectively.

B6: 001-B11 (antibody, V domains shown)
VH: EVQLLESGGGLVQPGGSLRLSCAASGFTFSSYSMNWVRQAPGKGLEWVAVMSYDEYNTYYADSVKGRFTISRDNSKNTLYLQMNSLRAEDTAVYYCAKGFYGDYPLWDYWGQGTLVTVSS
VL: not shown
notes: IgG
As to B6, the figures for the EC50 in assay [1], in assay [2] and in assay [3] were 0.25 nM, 27 nM and 1 nM, respectively.

B7: 001-H09 (antibody, V domains shown)
VH: EVQLLESGGGLVQPGGSLRLSCAASGFTFSSYAMSWVRQAPGKGLEWVATISYHGSDKDYADSVKGRFTISRDNSKNTLYLQMNSLRAEDTAVYYCARDANYHSSGYYYDVFDIWGQGTLVTVSS
VL: not shown
notes: IgG
With B7, the EC50 in assay [1] amounted to 0.3 nM; in assay [2], 16 nM; in assay [3], 1.4 nM.

B8: 005-F10 (antibody, V domains shown)
VH: EVQLLESGGGLVQPGGSLRLSCAASGFTFSDYYMTWIRQAPGKGLEWVSGISGSGGYIHYADSVKGRFTISRDNSKNTLYLQMNSLRAEDTAVYYCAREGLLPDAFDIWGQGTLVTVSS
VL: not shown
notes: IgG
On to B8, for which the EC50 came out at 0.22 nM in assay [1], 32 nM in assay [2] and 0.03 nM in assay [3].

B9: 005-B02 (antibody, V domains shown)
VH: EVQLLESGGGLVQPGGSLRLSCAASGFTFSDYYMSWIRQAPGKGLEWVALIWYDGGNEYYADSVKGRFTISRDNSKNTLYLQMNSLRAEDTAVYYCVRETGNYGMDVWGQGTLVTVSS
VL: QSVLTQPPSASGTPGQRVTISCTGSSSNIGAGYDVHWYQQLPGTAPKLLIYRNNQRPSGVPDRFSGSKSGTSASLAISGLRSEDEADYYCATWDDRVNGPVFGGGTKLTVLG
notes: IgG
As for B9, the figures for the EC50 in assay [1], in assay [2] and in assay [3] were 0.15 nM, 0.8 nM and 0.2 nM, respectively.

B10: 001-C08 (antibody, V domains shown)
VH: EVQLLESGGGLVQPGGSLRLSCAASGFTFSNAWMSWVRQAPGKGLEWVSGISSSGSSAYYADSVKGRFTISRDNSKNTLYLQMNSLRAEDTAVYYCARHYYYHIAGYYYDTFDIWGQGTLVTVSS
VL: not shown
notes: IgG; also called 1-008
As for B10, the values for the EC50 in assay [1], in assay [2] and in assay [3] were 0.082 nM, 2.6 nM and 1.1 nM, respectively.

B11: 004-E08 (antibody, V domains shown)
VH: EVQLLESGGGLVQPGGSLRLSCAASGFTFSRYWMHWVRQVPGKGLEWVSGISDSGVVTYYADSVKGRFTISRDNSKNTLYLQMNSLRAEDTAVYYCARAQSVAFDIWGQGTLVTVSS
VL: QSVLTQPPSASGTPGQRVTISCSGSSSNIGAGHDVHWYQQLPGTAPKLLIYYDDLLPSGVPDRFSGSKSGTSASLAISGLRSEDEADYYCAAWDDSLSGWVFGGGTKLTVLG
notes: IgG
For the molecule B11, the EC50 was found to be 0.38 nM in assay [1] and 2.3 nM in assay [2].

B12: 001-H10 (antibody, V domains shown)
VH: EVQLLESGGGLVQPGGSLRLSCAASGFTFDDYGMSWVRQAPGKGLEWVSVIYSGGSTYYADSVKGRFTISRDNSKNTLYLQMNSLRAEDTAVYYCARDRSSSWYRDGMDVWGQGTLVTVSS
VL: QSVLTQPPSASGTPGQRVTISCTGSSSNIGAGYDVHWYQQLPGTAPKLLIYGNSNRPSGVPDRFSGSKSGTSASLAISGLRSEDEADYYCAAWDDSLSGWVFGGGTKLTVLG
notes: IgG
For B12, the EC50 was 0.29 nM in assay [1], 1.1 nM in assay [2] and 0.9 nM in assay [3].

B13: 001-E06 (antibody, V domains shown)
VH: EVQLLESGGGLVQPGGSLRLSCAASGFTFSSNYMSWVRQAPGKGLEWVALIWYDGSNKYYADSVKGRFTISRDNSKNTLYLQMNSLRAEDTAVYYCAKDPLFDSWGQGTLVTVSS
VL: QSVLTQPPSASGTPGQRVTISCTGRSSNIGAGYDVHWYQQLPGTAPKLLIYDNNKRPSGVPDRFSGSKSGTSASLAISGLRSEDEADYYCAAWDDSLNGPVFGGGTKLTVLG
notes: IgG
Take B13: the results for the EC50 in assay [1], in assay [2] and in assay [3] were 0.2 nM, 4.1 nM and 0.3 nM, respectively.

B14: 001-A09 (antibody, V domains shown)
VH: EVQLLESGGGLVQPGGSLRLSCAASGFTFSSNYMSWVRQAPGKGLEWVSVISGSGGSTYYADSVKGRFTISRDNSKNTLYLQMNSLRAEDTAVYYCARDRGWFDPWGQGTLVTVSS
VL: QSVLTQPPSASGTPGQRVTISCSGSRSNIDNSYVSWYQQLPGTAPKLLIYRNNQRPSGVPDRFSGSKSGTSASLAISGLRSEDEADYYCATWDDSLSGPVFGGGTKLTVLG
notes: IgG
Consider B14, for which the values for the EC50 in assay [1] and in assay [2] were 4.4 nM and 48 nM, respectively.
